In PMC5678113, “Substrate Specificity and Allosteric Regulation of a D-Lactate Dehydrogenase from a Unicellular Cyanobacterium are Altered by an Amino Acid Substitution” (Scientific Reports, 2017):
Each block holds one molecule with its values, some of them ahead of it.

Legend:
Test in all cases: NADH oxidation followed at A340
SyDdh (GST-SyDdh) [1] = molecular target: T1, SyDdh (GST-SyDdh) (Synechocystis sp. PCC 6803, UniProt P74586, Q14E); assay type: biochemical; conditions: pH 7.5, 30 °C, 0.1 mM NADH, no Mg2+; substrate inhibition
T1 construct: gene ddh; Full ddh ORF, GST-tagged (tag kept, pGEX5X-1), expressed in E. coli DH5alpha, glutathione-Sepharose purified
From the text: (§1) NADH oxidation followed at A340 on SyDdh (GST-SyDdh)

SyDdh (GST-SyDdh) [2] = molecular target: T2, SyDdh (GST-SyDdh) (Synechocystis sp. PCC 6803, UniProt P74586, S234G); assay type: biochemical; conditions: pH 7.5, 30 °C, 0.1 mM NADH, no Mg2+; substrate inhibition
T2 construct: gene ddh; Full ddh ORF, GST-tagged (tag kept, pGEX5X-1), expressed in E. coli DH5alpha, glutathione-Sepharose purified
From the text: as §1

SyDdh (GST-SyDdh) [3] = molecular target: T3, SyDdh (GST-SyDdh) (Synechocystis sp. PCC 6803, UniProt P74586); assay type: biochemical; conditions: pH 7.5, 30 °C, 0.1 mM NADH, no Mg2+; substrate inhibition
T3 construct: gene ddh; Full ddh ORF, GST-tagged (tag kept, pGEX5X-1), expressed in E. coli DH5alpha, glutathione-Sepharose purified
T3 sequence (P74586 1-333): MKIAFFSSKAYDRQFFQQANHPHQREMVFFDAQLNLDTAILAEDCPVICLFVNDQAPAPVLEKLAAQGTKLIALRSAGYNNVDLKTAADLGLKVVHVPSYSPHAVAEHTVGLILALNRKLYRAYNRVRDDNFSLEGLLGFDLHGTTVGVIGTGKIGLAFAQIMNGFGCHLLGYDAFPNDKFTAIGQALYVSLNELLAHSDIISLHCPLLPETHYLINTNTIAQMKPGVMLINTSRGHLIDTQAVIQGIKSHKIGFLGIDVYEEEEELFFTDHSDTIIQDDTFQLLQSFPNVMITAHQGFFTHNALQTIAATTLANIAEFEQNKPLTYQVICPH
From the text: as §1

SyDdh (GST-SyDdh) [4] = molecular target: T3, SyDdh (GST-SyDdh); assay type: biochemical; conditions: for remaining activity at 2500 µM: read-out: % residual activity at 2.5 mM
[5] = substrate: CC(=O)C(=O)O; assay type: biochemical, Synechocystis sp. PCC 6803; conditions: pH 7.5, 30 °C, 0.1 mM NADH, no Mg2+, Hill coefficient 2.51
[6] = substrate: NC(=O)C1=CN([C@@H]2O[C@H](COP(=O)(O)OP(=O)(O)OC[C@H]3O[C@@H](n4cnc5c(N)ncnc54)[C@H](O)[C@@H]3O)[C@@H](O)[C@H]2O)C=CC1; assay type: biochemical, Synechocystis sp. PCC 6803; conditions: pH 7.5, 30 °C, varied: cofactor
[7] = substrate: CC(=O)C(=O)O; assay type: biochemical, Synechocystis sp. PCC 6803; conditions: pH 7.5, 30 °C, 0.1 mM NADH, no Mg2+
From the text: as §1

[8] = substrate: O=C(O)CC(=O)C(=O)O; assay type: biochemical, Synechocystis sp. PCC 6803; conditions: pH 7.5, 30 °C, 0.1 mM NADH, no Mg2+
From the text: as §1

Molecule: Nc1ncnc2c1ncn2[C@@H]1O[C@H](COP(=O)(O)OP(=O)(O)OP(=O)(O)O)[C@@H](O)[C@H]1O [ATP]
- remaining activity at 2500 µM (SyDdh (GST-SyDdh) [4]): 72%

B1: SyDdh (GST-SyDdh) (Synechocystis sp. PCC 6803 substr. Kazusa) (protein)
chain: MKIAFFSSKAYDRQFFQQANHPHQREMVFFDAQLNLDTAILAEDCPVICLFVNDQAPAPVLEKLAAQGTKLIALRSAGYNNVDLKTAADLGLKVVHVPSYSPHAVAEHTVGLILALNRKLYRAYNRVRDDNFSLEGLLGFDLHGTTVGVIGTGKIGLAFAQIMNGFGCHLLGYDAFPNDKFTAIGQALYVSLNELLAHSDIISLHCPLLPETHYLINTNTIAQMKPGVMLINTSRGHLIDTQAVIQGIKSHKIGFLGIDVYEEEEELFFTDHSDTIIQDDTFQLLQSFPNVMITAHQGFFTHNALQTIAATTLANIAEFEQNKPLTYQVICPH
notes: Full ddh ORF, GST-tagged (tag kept, pGEX5X-1), expressed in E. coli DH5alpha, glutathione-Sepharose purified
- K0.5 [5]: 0.38 ± 0.04 mM
- kcat [5]: 2.71 ± 0.26 s⁻¹
- kcat/Km [5]: 7140 ± 1150 M⁻¹ s⁻¹
- K0.5 [6]: 0.028 ± 0.002 mM
- kcat [6]: 2.60 ± 0.25 s⁻¹

B2: SyDdh (GST-SyDdh) (Synechocystis sp. PCC 6803 substr. Kazusa; Q14E) (protein)
chain: MKIAFFSSKAYDREFFQQANHPHQREMVFFDAQLNLDTAILAEDCPVICLFVNDQAPAPVLEKLAAQGTKLIALRSAGYNNVDLKTAADLGLKVVHVPSYSPHAVAEHTVGLILALNRKLYRAYNRVRDDNFSLEGLLGFDLHGTTVGVIGTGKIGLAFAQIMNGFGCHLLGYDAFPNDKFTAIGQALYVSLNELLAHSDIISLHCPLLPETHYLINTNTIAQMKPGVMLINTSRGHLIDTQAVIQGIKSHKIGFLGIDVYEEEEELFFTDHSDTIIQDDTFQLLQSFPNVMITAHQGFFTHNALQTIAATTLANIAEFEQNKPLTYQVICPH
notes: as for B1
- K0.5 ([7]; substrate-inhibition fit): 0.52 ± 0.10 mM
- kcat ([7]; substrate-inhibition fit): 4.11 ± 0.71 s⁻¹
- kcat/Km ([7]; substrate-inhibition fit): 7980 ± 350 M⁻¹ s⁻¹
- K0.5 ([8]; Hill coefficient 0.95): 1.71 ± 0.38 mM
- kcat ([8]; Hill coefficient 0.95): 2.38 ± 0.1 s⁻¹
- kcat/Km ([8]; Hill coefficient 0.95): 1460 ± 310 M⁻¹ s⁻¹

B3: SyDdh (GST-SyDdh) (Synechocystis sp. PCC 6803 substr. Kazusa; S234G) (protein)
chain: MKIAFFSSKAYDRQFFQQANHPHQREMVFFDAQLNLDTAILAEDCPVICLFVNDQAPAPVLEKLAAQGTKLIALRSAGYNNVDLKTAADLGLKVVHVPSYSPHAVAEHTVGLILALNRKLYRAYNRVRDDNFSLEGLLGFDLHGTTVGVIGTGKIGLAFAQIMNGFGCHLLGYDAFPNDKFTAIGQALYVSLNELLAHSDIISLHCPLLPETHYLINTNTIAQMKPGVMLINTGRGHLIDTQAVIQGIKSHKIGFLGIDVYEEEEELFFTDHSDTIIQDDTFQLLQSFPNVMITAHQGFFTHNALQTIAATTLANIAEFEQNKPLTYQVICPH
notes: as for B1
- K0.5 ([7]; Hill coefficient 1.64): 2.10 ± 0.18 mM
- kcat ([7]; Hill coefficient 1.64): 1.71 ± 0.26 s⁻¹
- kcat/Km ([7]; Hill coefficient 1.64): 820 ± 130 M⁻¹ s⁻¹
- K0.5 ([8]; substrate-inhibition fit): 0.59 ± 0.05 mM
- kcat ([8]; substrate-inhibition fit): 1.27 ± 0.24 s⁻¹
- kcat/Km ([8]; substrate-inhibition fit): 2190 ± 520 M⁻¹ s⁻¹

Second part, the molecule after the results:

- K i (SyDdh (GST-SyDdh) [1]): 16.51 ± 5.98 mM
Molecule: CC(=O)C(=O)O [pyruvate]

- K i (SyDdh (GST-SyDdh) [2]): 5.74 ± 1.04 mM
- K i (SyDdh (GST-SyDdh) [3]): 8.56 ± 3.39 mM
Molecule: O=C(O)CC(=O)C(=O)O [oxaloacetate]

- activity at 2500 µM (SyDdh (GST-SyDdh) [4]; read-out: % activity at 2.5 mM): 134%
Molecule: O=P(O)(O)OC[C@H]1OC(O)(COP(=O)(O)O)[C@@H](O)[C@@H]1O (some centres unmarked) [FBP]

- remaining activity at 2500 µM (SyDdh (GST-SyDdh) [4]): 42%
Molecule: NC(=O)C(=O)O [oxamate]
